Data as given in the Immune Epitope Database (IEDB).
pKd: −log10 of the molar value.

Tests used:
HLA-A*69:01 = experiment: IEDB peptide-MHC binding, purified MHC/direct/fluorescence; filed as Kd, often an IC50 or EC50 that approximates it; ≥ and ≤ were set here for values at or beyond the usual limits of such assays
HLA-A*02:16 = experiment: as above; conditions: source organism: Brucella suis 1330
HLA-A*02:06 = experiment: as above
HLA-A*02:12 = experiment: as above
HLA-A*02:19 = experiment: as above
HLA-A*02:01 = experiment: as above
HLA-B*15:01 = experiment: as above
HLA-A*68:02 = experiment: as above; conditions: source organism: Campylobacter jejuni RM1221
HLA-A*31:01 = experiment: as above; conditions: source organism: Campylobacter jejuni RM1221
HLA-B*57:01 = experiment: as above; conditions: source organism: Campylobacter jejuni RM1221
HLA-B*48:01 = experiment: as above; conditions: source organism: Campylobacter jejuni RM1221
HLA-B*58:01 = experiment: as above
HLA-B*07:02 = experiment: as above
HLA-A*01:01 = experiment: as above
HLA-B*15:17 = experiment: as above; conditions: source organism: Campylobacter jejuni RM1221
HLA-A*03:01 = experiment: as above
HLA-B*18:01 = experiment: as above
HLA-B*27:05 = experiment: as above
HLA-B*46:01 [1] = experiment: as above
HLA-B*08:03 = experiment: as above; conditions: source organism: Campylobacter jejuni subsp. jejuni 81116
HLA-B*40:01 = experiment: as above
HLA-A*02:03 = experiment: as above; conditions: source organism: Vibrio vulnificus YJ016
HLA-B*08:01 = experiment: as above; conditions: source organism: Vibrio vulnificus YJ016
HLA-B*44:02 = experiment: as above; conditions: source organism: Vibrio cholerae
HLA-A*24:02 [2] = experiment: as above; conditions: source organism: Vibrio cholerae
HLA-A*02:11 = experiment: as above; conditions: source organism: Vibrio vulnificus YJ016
HLA-A*26:01 = experiment: as above; conditions: source organism: Vibrio vulnificus YJ016
HLA-A*24:02 [3] = experiment: IEDB peptide-MHC binding, purified MHC/competitive/fluorescence; filed as Kd, often an IC50 or EC50 that approximates it; ≥ and ≤ were set here for values at or beyond the usual limits of such assays
HLA-B*35:01 = experiment: as above; conditions: source organism: Mopeia Lassa virus reassortant 29
HLA-B*46:01 [4] = experiment: as above; conditions: source organism: Mopeia Lassa virus reassortant 29
HLA-A*80:01 = experiment: IEDB peptide-MHC binding, purified MHC/direct/fluorescence; filed as Kd, often an IC50 or EC50 that approximates it; ≥ and ≤ were set here for values at or beyond the usual limits of such assays; conditions: source organism: Mammarenavirus lassaense
HLA-C*06:02 = experiment: as above; conditions: source organism: Listeria monocytogenes J0161
[5] = source organism: Brucella suis 1330
[6] = source organism: Campylobacter jejuni RM1221
[7] = source organism: Vibrio cholerae
[8] = source organism: Vibrio vulnificus YJ016

## MRDGGSATV
HLA-A*69:01; [5]
  pKd: ≤ 4.70
HLA-A*02:16
  pKd: ≤ 5.00
HLA-A*02:06; [5]
  pKd: ≤ 5.00
HLA-A*02:12; [5]
  pKd: ≤ 4.70
HLA-A*02:19; [5]
  pKd: ≤ 4.70
HLA-A*02:01; source organism: Brucella suis
  pKd: ≤ 4.70

## VQKVNPAPK
HLA-B*15:01; [6]
  pKd: 5.95
HLA-A*68:02
  pKd: ≤ 4.70
HLA-A*31:01
  pKd: 6.04
HLA-B*57:01
  pKd: ≤ 4.70
HLA-B*48:01
  pKd: ≤ 4.70
HLA-B*58:01; [6]
  pKd: ≤ 4.70
HLA-B*07:02; [6]
  pKd: ≤ 4.70
HLA-A*01:01; [6]
  pKd: ≤ 4.70
HLA-B*15:17
  pKd: ≤ 4.70
HLA-A*03:01; [6]
  pKd: 6.32
HLA-B*18:01; [6]
  pKd: ≤ 4.70
HLA-B*27:05; [6]
  pKd: ≤ 5.00
HLA-B*46:01 [1]; [6]
  pKd: ≤ 4.70
HLA-A*02:01; [6]
  pKd: ≤ 4.70
HLA-B*08:03
  pKd: ≤ 4.70
HLA-B*40:01; [6]
  pKd: ≤ 4.70

## VVYKEAKIK
HLA-A*02:03
  pKd: 5.95
HLA-B*15:01; [7]
  pKd: ≤ 4.70
HLA-A*69:01; [7]
  pKd: ≤ 4.70
HLA-A*02:06; [8]
  pKd: 6.18
HLA-A*02:12; [8]
  pKd: 5.70
HLA-B*58:01; [7]
  pKd: ≤ 4.70
HLA-B*07:02; [7]
  pKd: ≤ 4.70
HLA-A*02:19; [8]
  pKd: ≤ 4.70
HLA-A*01:01; [7]
  pKd: ≤ 4.70
HLA-B*08:01
  pKd: ≤ 4.70
HLA-A*03:01; [7]
  pKd: 6.51
HLA-B*18:01; [7]
  pKd: ≤ 4.70
HLA-B*27:05; [7]
  pKd: ≤ 4.70
HLA-B*46:01 [1]; [7]
  pKd: ≤ 4.70
HLA-B*44:02
  pKd: ≤ 4.70
HLA-A*02:01; [7]
  pKd: 6.01
HLA-A*24:02 [2]
  pKd: ≤ 4.70
HLA-A*02:11
  pKd: 6.06
HLA-A*26:01
  pKd: ≤ 4.70
HLA-B*40:01; [7]
  pKd: ≤ 4.70

## YQGKFYMPF
HLA-A*24:02 [3]; source organism: Yersinia pestis Nepal516
  pKd: 9.52

## YSQESPQSY
HLA-B*35:01
  pKd: 7.36
HLA-B*46:01 [4]
  pKd: 6.07
HLA-A*80:01
  pKd: ≤ 4.70
HLA-A*01:01; source organism: Mammarenavirus lassaense
  pKd: 8.96

## YYVWMVQFF
HLA-A*24:02 [3]; source organism: Listeria monocytogenes J0161
  pKd: 9.70
HLA-C*06:02
  pKd: ≤ 4.70
